In article doi:10.1101/2021.02.08.430344:

B1: T10 (ssDNA)
DNA: TTTTTTTTTT
B2: (GT)2 (ssDNA)
DNA: GTGT
B3: T6 (ssDNA)
DNA: TTTTTT
B4: T20 (ssDNA)
DNA: TTTTTTTTTTTTTTTTTTTT

Experiments:
[1] = biological target: T1, SARS-CoV-2 nucleocapsid (N) protein (SARS-CoV-2, UniProt P0DTC9 2-419); assay: SV-AUC; […], pH 7.4; ITC at 20 C; […] (137 mM NaCl); conditions: protein: commercial; tags: C-terminal His-tag; chain copies: 2; single strand
[2] = biological target: T1, SARS-CoV-2 nucleocapsid (N) protein; assay: SV-AUC + ITC global fit; […], pH 7.4; ITC at 20 C; […] (137 mM NaCl); conditions: protein: commercial; tags: C-terminal His-tag; chain copies: 2; single strand

Row | Binder | Kd [1] [nM] | other results
1 | B1 | < 100 | –
2 | B2 | > 10000 | –
3 | B3 | – | Kd [2]: 600 nM
4 | B4 | – | binding result [1]: binds
